B1: F2-4-3 wild-type probe (dsDNA)
DNA 1: GAATTTGTTGTTCAACACTCAACAAAATACCGCGATACATACCAGAAAGTGTGCGATAGC
DNA 2: GCTATCGCACACTTTCTGGTATGTATCGCGGTATTTTGTTGAGTGTTGAACAACAAATTC
B2: F2-4-3 mutant probe (dsDNA)
DNA 1: GAACGCACGAGCAGACACTCAACAAAATACCGCGATACATACCAGAAAGTGTGCGATAGC
DNA 2: GCTATCGCACACTTTCTGGTATGTATCGCGGTATTTTGTTGAGTGTCTGCTCGTGCGTTC

Biological target: Sox21aHMG-BD (Drosophila melanogaster, UniProt M9PFG6 108-208)
Test: EMSA; 25 mM HEPES pH 7.5, 40 mM KCl, 3 mM DTT, 10% glycerol, 0.1 mM EDTA, 0.5 mg/ml BSA, 0.5 mg/ml poly-glutamate, 25 C, 30 min; 6% native PAGE
Conditions: protein: recombinant; tags: His-tag at C-terminus (pET-28b); label: Cy5

Sequence of Sox21aHMG-BD (M9PFG6 entry or part of it): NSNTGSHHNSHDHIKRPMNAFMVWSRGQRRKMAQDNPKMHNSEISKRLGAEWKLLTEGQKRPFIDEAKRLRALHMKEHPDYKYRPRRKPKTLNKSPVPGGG

| Binder | binding result |
| --- | --- |
| B1 | binds |
| B2 | no binding |
